Source: the RNAGym collection of RNA variant scans (doi:10.7554/elife.80360)

B1: CPEB3 Ribozyme (parent)
chain: GGGGGCCACAGCAGAAGCGUUCACGUCGCGGCCCCUGUCAGAUUCUGGUGAAUCUGCGAAUUCUGCUGU

Variants of: B1
Assay: self-cleavage, relative activity (ratio to wild type); higher = more cleavage; co-transcriptional

Point of comparison: G19C U46A, self-cleavage 0.177. Against it:
- U20A G56U — higher, 0.217
- U20A G56A — higher, 0.184
- U20A G56C — lower, 0.113
- G19U U21C — higher, 0.218
- U20A G68C — higher, 0.253
- U20A G68U — lower, 0.142
- U20A G68A — higher, 0.196
- G19U C66A — higher, 0.271
- G19U C66G — higher, 0.27
- U20C C29U — lower, 0.128
- U20C C29A — higher, 0.227
- U20C C57G — higher, 0.261
- U20A C45U — lower, 0.144
- U20C A23U — higher, 0.257
- U20C A23C — higher, 0.243
- U20A U46C — lower, 0.0817
- U20A U46G — lower, 0.128
- U20A U46A — higher, 0.216
- U20A U36C — lower, 0.149
- U20A U36G — higher, 0.201
- U20A A51U — lower, 0.153
- U20A A51G — higher, 0.186
- U20A A51C — lower, 0.151
- U20A C39A — lower, 0.169
- U20A C39U — lower, 0.125
- G19U A51U — higher, 0.476
- G19U A51G — higher, 0.538
- U20A A23C — lower, 0.149
- U20C U38C — higher, 0.212
- U20C U38G — higher, 0.24
- U20C U38A — higher, 0.181
- G19U G37U — higher, 0.199
- G19U G37A — higher, 0.19
- G19U G37C — lower, 0.175
- U20C C32A — higher, 0.192
- U20A U26G — higher, 0.182
- U20A U26C — lower, 0.106
- G19C U46C — lower, 0.159
- U20A A52U — lower, 0.143
- U20A A52G — lower, 0.117
- U20A A52C — lower, 0.0922
- G19C U64C — lower, 0.123
- U20C — higher, 0.222
- U20A — lower, 0.157
- G19U A42C — higher, 0.269
- G19U A42G — higher, 0.326
- G19U A42U — higher, 0.327
- G19U U64C — higher, 0.249
- G19U U64A — higher, 0.233
- G19U U64G — higher, 0.192
- G19U U69C — higher, 0.925
- G19U U69A — higher, 0.739
- G19U C39A — higher, 0.188
- G19U C39G — higher, 0.264
- G19U C39U — higher, 0.22
- G19U G48U — higher, 0.681
- G19C U61G — lower, 0.116
- G19C U61C — lower, 0.161
- U20A C66G — lower, 0.133
- U20A C66U — higher, 0.205
- U20A C66A — lower, 0.154
- U20C G30U — lower, 0.153
- U20C G30C — higher, 0.178
- U20A U21C — lower, 0.0963
- U20C A60G — lower, 0.166
- U20C A60U — higher, 0.208
- U20C A60C — lower, 0.142
- G19U G65A — higher, 0.254
- G19U G65C — higher, 0.287
- G19U G65U — lower, 0.148
- G19C G65C — lower, 0.12
- G19C G65U — lower, 0.133
- G19C U20A — lower, 0.109
- G19C U20C — higher, 0.19
- G19C U20G — lower, 0.126
- U20A G28C — lower, 0.14
- U20A G28A — lower, 0.12
- U20A G28U — higher, 0.182
- U20A G31A — lower, 0.135
- U20A G31U — lower, 0.17
- U20A G31C — lower, 0.0954
- U20C G31A — higher, 0.261
- U20C G31C — lower, 0.148
- U20C G31U — higher, 0.204
- U20C C34U — lower, 0.13
- U20C C34A — lower, 0.176
- U20C C34G — lower, 0.139
- U20C C63G — lower, 0.162
- U20C C63U — higher, 0.229
- U20C C63A — lower, 0.138
- G19U G47U — higher, 0.64
- G19U U26G — higher, 0.256
- G19U U26A — higher, 0.272
- G19U U26C — higher, 0.256
- U20A C27G — lower, 0.152
- U20A C27U — lower, 0.149
- U20A G30C — lower, 0.141
- U20A G30U — lower, 0.109
- U20A G30A — higher, 0.192
- U20A C22A — lower, 0.152
- U20A C22U — lower, 0.176
- U20A C22G — lower, 0.119
- G19C U62G — lower, 0.162
- U20C G47A — higher, 0.243
- U20C G47C — higher, 0.188
- U20C G47U — higher, 0.239
- U20C C35G — lower, 0.129
- U20C C35A — lower, 0.169
- U20C C35U — lower, 0.145
- G19U C27A — higher, 0.947
- G19U C27G — higher, 0.82
- U20A C35A — lower, 0.115
- U20A C35G — higher, 0.183
- U20C G41A — higher, 0.247
- U20C G41U — lower, 0.137
- U20C G41C — lower, 0.139
- G19C U55C — lower, 0.163
- G19C U55A — lower, 0.132
- G19C U55G — lower, 0.172
- U20C C54U — higher, 0.182
- U20C C54G — higher, 0.206
- U20A G25U — lower, 0.135
- U20A G25C — lower, 0.165
- U20A G25A — higher, 0.198
- U20A U64A — higher, 0.326
- U20A U64G — lower, 0.11
- U20A U64C — lower, 0.122
- G19U G31C — lower, 0.163
- G19U G31U — lower, 0.168
- G19U G31A — higher, 0.258
- U20C C45A — higher, 0.219
- U20C C45G — higher, 0.217
- U20C C45U — higher, 0.201
- G19U — higher, 0.644
- U20C G68A — higher, 0.336
- G19C U44G — lower, 0.164
- G19C U44A — higher, 0.185
- G19U C45G — higher, 0.4
- G19U C45U — higher, 0.469
- G19U A60G — higher, 0.289
- G19U A60U — lower, 0.168
- U20A G58A — higher, 0.208
- U20A G58U — lower, 0.152
- U20A U67C — lower, 0.127
- U20A U67G — higher, 0.271
- U20A A40G — lower, 0.11
- G19U C29A — lower, 0.161
- G19U C29G — lower, 0.175
- G19U U55C — higher, 0.191
- G19U A52U — higher, 0.474
- G19U A52C — higher, 0.432
- G19U A52G — higher, 0.589
- U20A U53C — lower, 0.154
- U20A U53G — lower, 0.136
- U20A U53A — lower, 0.0892
- U20C U36A — lower, 0.125
- G19U U67C — higher, 0.461
- G19U U67A — higher, 0.479
- G19U U67G — higher, 0.546
- U20C G56A — higher, 0.223
- U20A C63G — lower, 0.13
- U20A C63A — lower, 0.129
- U20A G47A — lower, 0.176
- U20A U69G — higher, 0.282
- U20A U69C — higher, 0.225
- U20A G48A — lower, 0.124
